Measurements published in patent US20120328623A1 (Kyowa Kirin, published 2012).

Target: T1, GST fusion protein wherein the extracellular domain of mouse erbB3 is fused to GST (mouse, UniProt Q61526 20-641)
T1 construct: also called merbB3-GST; merbB3; not shown: glutathione S-transferase (GST)
Assay: binding ELISA, GST fusion captured by anti-GST
Protocol: anti-Glutathione-Transferase-Schistsoma-japonicum (Goat) (manufactured by Rockland Immunochemicals Inc., ca. No. 16979) (hereinbelow, described as “anti-GST”) prepared at 1 μg/mL by using a 50 mM carbonate buffer (pH 9) (hereinbelow, described as a “coating buffer”) was added to Maxisorp plate (NUNC; ca. No. 442404) at 50 μL/well and immobilized by incubation at 37° C. for an hour (or 4° C., ON).
After the buffer was discarded, a blocking reagent (SuperBlock® Blocking Buffer, manufactured by PIERCE) was added to the respective wells at 250 μL to 300 μL/well, followed by incubation at room temperature for 5 to 10 minutes for blocking After the blocking reagent was discarded, the herbB3-GST fusion protein, the merbB3-GST fusion protein, the hD1/mD234 fusion protein, the hD12/mD34 fusion protein, and the hD123/mD4 fusion protein which were diluted at 5 μg/mL with Tris-buffered saline (hereinbelow, described as an “assay diluent”) containing 10% Block Ace® (manufactured by Dainippon Sumitomo Pharma Co., Ltd.) and 0.1% Tween 20 were added respectively to the plates of the respective antigens at 50 μL/well, and immobilized by incubation at room temperature for an hour.
An absorbance at a wavelength of 450 nm (reference wavelength of 570 nm) was measured using a microplate reader (MTP-300; manufactured by CORONA […] Co., Ltd.).

T1 sequence (Q61526 20-641): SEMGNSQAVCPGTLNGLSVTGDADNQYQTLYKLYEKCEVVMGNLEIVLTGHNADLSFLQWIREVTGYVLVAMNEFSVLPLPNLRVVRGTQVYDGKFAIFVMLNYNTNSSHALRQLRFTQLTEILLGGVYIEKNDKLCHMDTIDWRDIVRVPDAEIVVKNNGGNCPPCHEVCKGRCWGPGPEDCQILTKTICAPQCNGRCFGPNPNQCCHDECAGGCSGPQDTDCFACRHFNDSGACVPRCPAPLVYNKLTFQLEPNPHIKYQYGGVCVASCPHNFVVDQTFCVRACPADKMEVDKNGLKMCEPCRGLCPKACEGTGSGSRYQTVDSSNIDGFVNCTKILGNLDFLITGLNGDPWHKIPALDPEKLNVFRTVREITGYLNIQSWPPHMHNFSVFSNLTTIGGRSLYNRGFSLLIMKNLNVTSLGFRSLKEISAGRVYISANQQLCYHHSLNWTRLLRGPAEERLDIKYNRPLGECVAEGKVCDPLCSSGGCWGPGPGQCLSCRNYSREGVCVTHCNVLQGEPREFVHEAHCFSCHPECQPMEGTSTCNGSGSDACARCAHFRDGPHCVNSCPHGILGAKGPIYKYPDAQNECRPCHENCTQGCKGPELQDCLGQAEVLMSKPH

B1: anti-human erbB3 monoclonal antibody 12511 (antibody, V domains shown)
VH: QIQLQQSGPELVNPGASVKISCKPSGYTFTDYYINWVKQRPGQGLEWIGWIHPGGGYTKYNEKFRGKATVTVDTSANTVYMQLSSLTSDDSAVYFCARRDYGDYGFAYWGQGTLVTVSA
VL: DIVLTQSPASLAVSLGQRATISCRVSESVDSYGNSFMHWYQQKPGQPPKLLIYRASNLESGIPDRFSGSVSRTDFTLTINPVEPDDVATYYCQQTNEDPPTFGGGTKLEIK
Does B1 bind?
Result: binds
